# Positions count from the first letter of the chain named. Starred links: 1 amine or outer side, 2 acyl side, 3 side chain; linkers in the order of their positions; H or OH if unused. Non-standard residues stand in square brackets, D forms with d. Groups on a side chain read outwards from the residue. *: point of attachment. C18 diacid = O=C(O)CCCCCCCCCCCCCCCCC(=O)*; γGlu = O=C(O)[C@H](CCC(=O)[*:2])N[*:1]; AEEA = NCCOCCOCC(=O)O; Aib = CC(C)(N)C(=O)O
# T1: full-length human GIPR with an N-terminal FLAG tag, overexpressed on HEK-293T cells (human, UniProt P48546 22-466)
# T1 sequence (looked up): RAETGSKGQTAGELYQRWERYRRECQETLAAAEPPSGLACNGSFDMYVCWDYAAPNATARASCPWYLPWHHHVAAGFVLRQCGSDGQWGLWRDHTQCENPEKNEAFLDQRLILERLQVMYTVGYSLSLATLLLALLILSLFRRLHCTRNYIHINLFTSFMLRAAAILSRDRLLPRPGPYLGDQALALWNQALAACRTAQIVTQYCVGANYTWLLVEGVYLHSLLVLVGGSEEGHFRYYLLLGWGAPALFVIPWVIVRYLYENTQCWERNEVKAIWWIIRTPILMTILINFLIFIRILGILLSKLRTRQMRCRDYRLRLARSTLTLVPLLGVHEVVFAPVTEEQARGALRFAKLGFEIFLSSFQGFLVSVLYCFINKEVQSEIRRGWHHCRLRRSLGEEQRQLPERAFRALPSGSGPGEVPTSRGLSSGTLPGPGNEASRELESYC
# B1: Compound No. 167 (peptide)
# peptide: H-Y[Aib]EGTFISDYSI[Aib]LDKAAQQK([AEEA-AEEA-γGlu-γGlu-C18 diacid])FVEWLLAQRG-OH
# SMILES: CC[C@H](C)[C@H](NC(=O)[C@H](Cc1ccccc1)NC(=O)[C@@H](NC(=O)CNC(=O)[C@H](CCC(=O)O)NC(=O)C(C)(C)NC(=O)[C@@H](N)Cc1ccc(O)cc1)[C@@H](C)O)C(=O)N[C@@H](CO)C(=O)N[C@@H](CC(=O)O)C(=O)N[C@@H](Cc1ccc(O)cc1)C(=O)N[C@@H](CO)C(=O)N[C@H](C(=O)NC(C)(C)C(=O)N[C@@H](CC(C)C)C(=O)N[C@@H](CC(=O)O)C(=O)N[C@@H](CCCCN)C(=O)N[C@@H](C)C(=O)N[C@@H](C)C(=O)N[C@@H](CCC(N)=O)C(=O)N[C@@H](CCC(N)=O)C(=O)N[C@@H](CCCCNC(=O)COCCOCCNC(=O)COCCOCCNC(=O)CC[C@H](NC(=O)CC[C@H](NC(=O)CCCCCCCCCCCCCCCCC(=O)O)C(=O)O)C(=O)O)C(=O)N[C@@H](Cc1ccccc1)C(=O)N[C@H](C(=O)N[C@@H](CCC(=O)O)C(=O)N[C@@H](Cc1c[nH]c2ccccc12)C(=O)N[C@@H](CC(C)C)C(=O)N[C@@H](CC(C)C)C(=O)N[C@@H](C)C(=O)N[C@@H](CCC(N)=O)C(=O)N[C@@H](CCCNC(=N)N)C(=O)NCC(=O)O)C(C)C)[C@@H](C)CC
# B2: Compound No. 164 (peptide)
# peptide: YXEGTFISDYSIAXDKAXQQDFVEWLLAQRG
# modifications: N-terminus H; Aib at 2, 14; Km at 18 = Lys(2OEGgE-C18DA); C-terminus OH
# B3: Compound No. 166 (peptide)
# peptide: B2 peptide with A17I, Q20A
# modifications: N-terminus H; Aib at 2, 14; Km at 18 = Lys(2OEGgE-C18DA); C-terminus OH
# B4: Compound No. 165 (peptide)
# peptide: B2 peptide with Q20A
# modifications: N-terminus H; Aib at 2, 14; Km at 18 = Lys(2OEGgE-C18DA); C-terminus OH
# B5: Compound No. 162 (peptide)
# peptide: H-Y[Aib]EGTFISDYSIALDK[Aib]K([AEEA-AEEA-γGlu-C18 diacid])QADFVEWLLAQRG-OH
# SMILES: CC[C@H](C)[C@H](NC(=O)[C@H](CO)NC(=O)[C@H](Cc1ccc(O)cc1)NC(=O)[C@H](CC(=O)O)NC(=O)[C@H](CO)NC(=O)[C@@H](NC(=O)[C@H](Cc1ccccc1)NC(=O)[C@@H](NC(=O)CNC(=O)[C@H](CCC(=O)O)NC(=O)C(C)(C)NC(=O)[C@@H](N)Cc1ccc(O)cc1)[C@@H](C)O)[C@@H](C)CC)C(=O)N[C@@H](C)C(=O)N[C@@H](CC(C)C)C(=O)N[C@@H](CC(=O)O)C(=O)N[C@@H](CCCCN)C(=O)NC(C)(C)C(=O)N[C@@H](CCCCNC(=O)COCCOCCNC(=O)COCCOCCNC(=O)CC[C@H](NC(=O)CCCCCCCCCCCCCCCCC(=O)O)C(=O)O)C(=O)N[C@@H](CCC(N)=O)C(=O)N[C@@H](C)C(=O)N[C@@H](CC(=O)O)C(=O)N[C@@H](Cc1ccccc1)C(=O)N[C@H](C(=O)N[C@@H](CCC(=O)O)C(=O)N[C@@H](Cc1c[nH]c2ccccc12)C(=O)N[C@@H](CC(C)C)C(=O)N[C@@H](CC(C)C)C(=O)N[C@@H](C)C(=O)N[C@@H](CCC(N)=O)C(=O)N[C@@H](CCCNC(=N)N)C(=O)NCC(=O)O)C(C)C
# B6: Compound No. 169 (peptide)
# peptide: H-Y[Aib]EGTFISDYSI[Aib]LDKAK([AEEA-AEEA-γGlu-C18 diacid])QQDFVEWLLAQRG-OH
# SMILES: CC[C@H](C)[C@H](NC(=O)[C@H](Cc1ccccc1)NC(=O)[C@@H](NC(=O)CNC(=O)[C@H](CCC(=O)O)NC(=O)C(C)(C)NC(=O)[C@@H](N)Cc1ccc(O)cc1)[C@@H](C)O)C(=O)N[C@@H](CO)C(=O)N[C@@H](CC(=O)O)C(=O)N[C@@H](Cc1ccc(O)cc1)C(=O)N[C@@H](CO)C(=O)N[C@H](C(=O)NC(C)(C)C(=O)N[C@@H](CC(C)C)C(=O)N[C@@H](CC(=O)O)C(=O)N[C@@H](CCCCN)C(=O)N[C@@H](C)C(=O)N[C@@H](CCCCNC(=O)COCCOCCNC(=O)COCCOCCNC(=O)CC[C@H](NC(=O)CCCCCCCCCCCCCCCCC(=O)O)C(=O)O)C(=O)N[C@@H](CCC(N)=O)C(=O)N[C@@H](CCC(N)=O)C(=O)N[C@@H](CC(=O)O)C(=O)N[C@@H](Cc1ccccc1)C(=O)N[C@H](C(=O)N[C@@H](CCC(=O)O)C(=O)N[C@@H](Cc1c[nH]c2ccccc12)C(=O)N[C@@H](CC(C)C)C(=O)N[C@@H](CC(C)C)C(=O)N[C@@H](C)C(=O)N[C@@H](CCC(N)=O)C(=O)N[C@@H](CCCNC(=N)N)C(=O)NCC(=O)O)C(C)C)[C@@H](C)CC
# B7: Compound No. 163 (peptide)
# peptide: H-Y[Aib]EGTFISDYSIALDK[Aib]K([AEEA-AEEA-γGlu-C18 diacid])QANFVEWLLAQRG-OH
# SMILES: CC[C@H](C)[C@H](NC(=O)[C@H](CO)NC(=O)[C@H](Cc1ccc(O)cc1)NC(=O)[C@H](CC(=O)O)NC(=O)[C@H](CO)NC(=O)[C@@H](NC(=O)[C@H](Cc1ccccc1)NC(=O)[C@@H](NC(=O)CNC(=O)[C@H](CCC(=O)O)NC(=O)C(C)(C)NC(=O)[C@@H](N)Cc1ccc(O)cc1)[C@@H](C)O)[C@@H](C)CC)C(=O)N[C@@H](C)C(=O)N[C@@H](CC(C)C)C(=O)N[C@@H](CC(=O)O)C(=O)N[C@@H](CCCCN)C(=O)NC(C)(C)C(=O)N[C@@H](CCCCNC(=O)COCCOCCNC(=O)COCCOCCNC(=O)CC[C@H](NC(=O)CCCCCCCCCCCCCCCCC(=O)O)C(=O)O)C(=O)N[C@@H](CCC(N)=O)C(=O)N[C@@H](C)C(=O)N[C@@H](CC(N)=O)C(=O)N[C@@H](Cc1ccccc1)C(=O)N[C@H](C(=O)N[C@@H](CCC(=O)O)C(=O)N[C@@H](Cc1c[nH]c2ccccc12)C(=O)N[C@@H](CC(C)C)C(=O)N[C@@H](CC(C)C)C(=O)N[C@@H](C)C(=O)N[C@@H](CCC(N)=O)C(=O)N[C@@H](CCCNC(=N)N)C(=O)NCC(=O)O)C(C)C
# B8: Compound No. 168 (peptide)
# peptide: H-Y[Aib]EGTFISDYSI[Aib]LDKAAQAK([AEEA-AEEA-γGlu-γGlu-C18 diacid])FVEWLLAQRG-OH
# SMILES: CC[C@H](C)[C@H](NC(=O)[C@H](Cc1ccccc1)NC(=O)[C@@H](NC(=O)CNC(=O)[C@H](CCC(=O)O)NC(=O)C(C)(C)NC(=O)[C@@H](N)Cc1ccc(O)cc1)[C@@H](C)O)C(=O)N[C@@H](CO)C(=O)N[C@@H](CC(=O)O)C(=O)N[C@@H](Cc1ccc(O)cc1)C(=O)N[C@@H](CO)C(=O)N[C@H](C(=O)NC(C)(C)C(=O)N[C@@H](CC(C)C)C(=O)N[C@@H](CC(=O)O)C(=O)N[C@@H](CCCCN)C(=O)N[C@@H](C)C(=O)N[C@@H](C)C(=O)N[C@@H](CCC(N)=O)C(=O)N[C@@H](C)C(=O)N[C@@H](CCCCNC(=O)COCCOCCNC(=O)COCCOCCNC(=O)CC[C@H](NC(=O)CC[C@H](NC(=O)CCCCCCCCCCCCCCCCC(=O)O)C(=O)O)C(=O)O)C(=O)N[C@@H](Cc1ccccc1)C(=O)N[C@H](C(=O)N[C@@H](CCC(=O)O)C(=O)N[C@@H](Cc1c[nH]c2ccccc12)C(=O)N[C@@H](CC(C)C)C(=O)N[C@@H](CC(C)C)C(=O)N[C@@H](C)C(=O)N[C@@H](CCC(N)=O)C(=O)N[C@@H](CCCNC(=N)N)C(=O)NCC(=O)O)C(C)C)[C@@H](C)CC
# B9: Compound No. 170 (peptide)
# peptide: H-Y[Aib]EGTFISDYSI[Aib]LDKAK([AEEA-AEEA-γGlu-C18 diacid])QQDFVNWLLAQRG-OH
# SMILES: CC[C@H](C)[C@H](NC(=O)[C@H](Cc1ccccc1)NC(=O)[C@@H](NC(=O)CNC(=O)[C@H](CCC(=O)O)NC(=O)C(C)(C)NC(=O)[C@@H](N)Cc1ccc(O)cc1)[C@@H](C)O)C(=O)N[C@@H](CO)C(=O)N[C@@H](CC(=O)O)C(=O)N[C@@H](Cc1ccc(O)cc1)C(=O)N[C@@H](CO)C(=O)N[C@H](C(=O)NC(C)(C)C(=O)N[C@@H](CC(C)C)C(=O)N[C@@H](CC(=O)O)C(=O)N[C@@H](CCCCN)C(=O)N[C@@H](C)C(=O)N[C@@H](CCCCNC(=O)COCCOCCNC(=O)COCCOCCNC(=O)CC[C@H](NC(=O)CCCCCCCCCCCCCCCCC(=O)O)C(=O)O)C(=O)N[C@@H](CCC(N)=O)C(=O)N[C@@H](CCC(N)=O)C(=O)N[C@@H](CC(=O)O)C(=O)N[C@@H](Cc1ccccc1)C(=O)N[C@H](C(=O)N[C@@H](CC(N)=O)C(=O)N[C@@H](Cc1c[nH]c2ccccc12)C(=O)N[C@@H](CC(C)C)C(=O)N[C@@H](CC(C)C)C(=O)N[C@@H](C)C(=O)N[C@@H](CCC(N)=O)C(=O)N[C@@H](CCCNC(=N)N)C(=O)NCC(=O)O)C(C)C)[C@@H](C)CC
# Biological target: T1, full-length human GIPR with an …
# Experiment: cell-based or functional assay
row,Binder,"Human GIPR cAMP EC50, HEK293T"
1,B1,0.0009 nM
2,B2,0.0002 nM
3,B3,0.0005 nM
4,B4,0.0001 nM
5,B5,0.0004 nM
6,B6,0.0008 nM
7,B7,0.0002 nM
8,B8,0.0009 nM
9,B9,0.0005 nM

# Biological target: full-length human GLP-1R with an N-terminal FLAG tag, overexpressed on HEK-293T cells (human, UniProt P43220 24-463)
# Experiment: cell-based or functional assay
row,Binder,"Human GLP1R cAMP EC50, HEK293T"
1,B1,38 nM
2,B2,> 1000 nM
3,B3,74.1 nM
4,B4,> 1000 nM
5,B5,589 nM
6,B6,178 nM
7,B7,219 nM
8,B8,16.6 nM
9,B9,61.7 nM

# Reference: patent US20230143604A1, “QW DOSING OF GIP RECEPTOR AGONIST PEPTIDE COMPOUNDS AND USES THEREOF” (TAKEDA PHARMACEUTICAL COMPANY LIMITED, priority 2020, published 2023)
